Data as given in IntAct's records for PubMed 29892012.

B1: RNA-binding protein 3 (Homo sapiens), P98179 (parent)
chain: MSSEEGKLFVGGLNFNTDEQALEDHFSSFGPISEVVVVKDRETQRSRGFGFITFTNPEHASVAMRAMNGESLDGRQIRVDHAGKSARGTRGGGFGAHGRGRSYSRGGGDQGYGSGRYYDSRPGGYGYGYGRSRDYNGRNQGGYDRYSGGNYRDNYDN
B2: ADP/ATP translocase 3 (Homo sapiens), P12236 (parent)
chain: MTEQAISFAKDFLAGGIAAAISKTAVAPIERVKLLLQVQHASKQIAADKQYKGIVDCIVRIPKEQGVLSFWRGNLANVIRYFPTQALNFAFKDKYKQIFLGGVDKHTQFWRYFAGNLASGGAAGATSLCFVYPLDFARTRLAADVGKSGTEREFRGLGDCLVKITKSDGIRGLYQGFSVSVQGIIIYRAAYFGVYDTAKGMLPDPKNTHIVVSWMIAQTVTAVAGVVSYPFDTVRRRMMMQSGRKGADIMYTGTVDCWRKIFRDEGGKAFFKGAWSNVLRGMGGAFVLVLYDELKKVI
B3: AP-1 complex subunit sigma-2 (Homo sapiens), P56377 (parent)
chain: MQFMLLFSRQGKLRLQKWYVPLSDKEKKKITRELVQTVLARKPKMCSFLEWRDLKIVYKRYASLYFCCAIEDQDNELITLEIIHRYVELLDKYFGSVCELDIIFNFEKAYFILDEFLLGGEVQETSKKNVLKAIEQADLLQEEAETPRSVLEEIGLT
B4: Melanoma-associated antigen 8 (Homo sapiens), P43361 (parent)
chain: MLLGQKSQRYKAEEGLQAQGEAPGLMDVQIPTAEEQKAASSSSTLIMGTLEEVTDSGSPSPPQSPEGASSSLTVTDSTLWSQSDEGSSSNEEEGPSTSPDPAHLESLFREALDEKVAELVRFLLRKYQIKEPVTKAEMLESVIKNYKNHFPDIFSKASECMQVIFGIDVKEVDPAGHSYILVTCLGLSYDGLLGDDQSTPKTGLLIIVLGMILMEGSRAPEEAIWEALSVMGLYDGREHSVYWKLRKLLTQEWVQENYLEYRQAPGSDPVRYEFLWGPRALAETSYVKVLEHVVRVNARVRISYPSLHEEALGEEKGV
partner: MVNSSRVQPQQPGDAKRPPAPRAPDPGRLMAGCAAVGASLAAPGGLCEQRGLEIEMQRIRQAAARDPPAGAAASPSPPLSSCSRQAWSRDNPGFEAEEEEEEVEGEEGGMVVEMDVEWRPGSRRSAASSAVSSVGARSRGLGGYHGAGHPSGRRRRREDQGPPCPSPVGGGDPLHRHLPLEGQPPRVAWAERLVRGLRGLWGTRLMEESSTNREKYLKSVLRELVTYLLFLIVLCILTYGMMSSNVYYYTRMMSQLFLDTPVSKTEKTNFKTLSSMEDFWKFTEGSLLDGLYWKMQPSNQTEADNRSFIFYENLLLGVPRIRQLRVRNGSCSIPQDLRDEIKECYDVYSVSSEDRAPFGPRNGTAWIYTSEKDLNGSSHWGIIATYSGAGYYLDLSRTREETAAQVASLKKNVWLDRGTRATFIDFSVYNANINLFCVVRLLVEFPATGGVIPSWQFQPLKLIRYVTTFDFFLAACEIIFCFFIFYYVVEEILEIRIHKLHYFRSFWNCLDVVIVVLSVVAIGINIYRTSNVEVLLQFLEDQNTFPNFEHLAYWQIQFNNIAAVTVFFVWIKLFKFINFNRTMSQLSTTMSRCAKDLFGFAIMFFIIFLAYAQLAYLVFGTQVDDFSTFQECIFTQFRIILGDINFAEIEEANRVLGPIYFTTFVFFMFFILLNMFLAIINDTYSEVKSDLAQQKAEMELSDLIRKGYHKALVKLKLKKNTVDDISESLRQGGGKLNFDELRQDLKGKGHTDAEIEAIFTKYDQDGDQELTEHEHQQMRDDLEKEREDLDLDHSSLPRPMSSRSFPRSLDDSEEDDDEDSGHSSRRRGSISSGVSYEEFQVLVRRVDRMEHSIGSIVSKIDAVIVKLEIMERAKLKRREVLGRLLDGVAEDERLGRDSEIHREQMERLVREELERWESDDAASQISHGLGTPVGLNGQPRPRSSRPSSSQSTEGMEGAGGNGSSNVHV

Variants of: B1
Conditions: with snrpa_human SNRPA

| Variant | effect of a mutation on the interaction |
| --- | --- |
| MSSEEGKLFVGGLNFNTDEQALEDHFSSFGPISEVVVVKDRETQRSRGFGFITFTNPEHASVAMRAMNGESLDGRQIRVDHAGKSARGTRGGGFGAHGRGRSYSRGGGDQGYGSGRYYDSRPGGYGYGYGRSRDYNGRNQGGYDHYSGGNYRDNYDN [R145H] | with no effect |

Variants of: B1
Conditions: with rbmx_human RBMX

| Variant | effect of a mutation on the interaction |
| --- | --- |
| MSSEEGKLFVGGLNFNTDEQALEDHFSSFGPISEVVVVKDRETQRSRGFGFITFTNPEHASVAMRAMNGESLDGRQIRVDHAGKSARGTRGGGFGAHGRGRSYSRGGGDQGYGSGRYYDSRPGGYGYGYGRSRDYNGRNQGGYDHYSGGNYRDNYDN [R145H] | with no effect |

Variants of: B2
Conditions: with ap2b1_human AP2B1, P63010
Chain of ap2b1_human AP2B1, P63010 (P63010 whole entry): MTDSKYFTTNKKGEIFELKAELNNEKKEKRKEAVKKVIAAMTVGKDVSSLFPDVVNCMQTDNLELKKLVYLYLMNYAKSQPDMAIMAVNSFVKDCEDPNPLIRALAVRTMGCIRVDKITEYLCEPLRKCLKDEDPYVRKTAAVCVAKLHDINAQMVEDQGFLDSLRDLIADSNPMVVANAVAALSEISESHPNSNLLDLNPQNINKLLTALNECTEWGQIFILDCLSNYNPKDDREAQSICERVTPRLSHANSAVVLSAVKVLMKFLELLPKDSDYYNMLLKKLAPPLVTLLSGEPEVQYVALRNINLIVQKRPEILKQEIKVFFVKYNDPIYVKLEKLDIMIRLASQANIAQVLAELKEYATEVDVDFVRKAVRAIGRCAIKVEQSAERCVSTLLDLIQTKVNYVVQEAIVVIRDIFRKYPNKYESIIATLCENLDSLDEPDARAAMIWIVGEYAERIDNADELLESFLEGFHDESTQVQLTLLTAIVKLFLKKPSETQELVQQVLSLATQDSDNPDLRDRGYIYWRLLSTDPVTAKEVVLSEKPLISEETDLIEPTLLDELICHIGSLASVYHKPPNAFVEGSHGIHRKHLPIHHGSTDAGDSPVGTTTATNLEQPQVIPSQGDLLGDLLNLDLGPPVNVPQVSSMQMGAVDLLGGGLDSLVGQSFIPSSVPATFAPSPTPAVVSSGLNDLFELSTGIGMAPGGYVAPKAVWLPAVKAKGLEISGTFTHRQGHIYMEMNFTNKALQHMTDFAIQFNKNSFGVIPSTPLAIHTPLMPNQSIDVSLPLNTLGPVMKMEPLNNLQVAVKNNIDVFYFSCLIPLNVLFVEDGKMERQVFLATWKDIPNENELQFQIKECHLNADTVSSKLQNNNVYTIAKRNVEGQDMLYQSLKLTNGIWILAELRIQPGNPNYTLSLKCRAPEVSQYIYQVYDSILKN

| Variant | effect of a mutation on the interaction |
| --- | --- |
| MTEQAISFAKDFLAGGIAAAISKTAVAPIERVKLLLQVQHASKQIAADKQYKGIVDCIVRIPKEQGVLSFWRGNLANVIRYFPTQALNFAFKDKYKQIFLGGVDKHTQFWRYFAGNLASGGAAGATSLCFVYPLDFARTRLAADVGKSGTEREFRGLGDCLVKITKSDGIRGLYQGFSVSVQGIIIYRAAYFGVYDTAKGMLPDPKNTHIVVSWMIAQTVMAVAGVVSYPFDTVRRRMMMQSGRKGADIMYTGTVDCWRKIFRDEGGKAFFKGAWSNVLRGMGGAFVLVLYDELKKVI [T221M] | with no effect |

Variants of: B3
Conditions: with ap1g1_human AP1G1, O43747
Chain of ap1g1_human AP1G1, O43747 (O43747 whole entry): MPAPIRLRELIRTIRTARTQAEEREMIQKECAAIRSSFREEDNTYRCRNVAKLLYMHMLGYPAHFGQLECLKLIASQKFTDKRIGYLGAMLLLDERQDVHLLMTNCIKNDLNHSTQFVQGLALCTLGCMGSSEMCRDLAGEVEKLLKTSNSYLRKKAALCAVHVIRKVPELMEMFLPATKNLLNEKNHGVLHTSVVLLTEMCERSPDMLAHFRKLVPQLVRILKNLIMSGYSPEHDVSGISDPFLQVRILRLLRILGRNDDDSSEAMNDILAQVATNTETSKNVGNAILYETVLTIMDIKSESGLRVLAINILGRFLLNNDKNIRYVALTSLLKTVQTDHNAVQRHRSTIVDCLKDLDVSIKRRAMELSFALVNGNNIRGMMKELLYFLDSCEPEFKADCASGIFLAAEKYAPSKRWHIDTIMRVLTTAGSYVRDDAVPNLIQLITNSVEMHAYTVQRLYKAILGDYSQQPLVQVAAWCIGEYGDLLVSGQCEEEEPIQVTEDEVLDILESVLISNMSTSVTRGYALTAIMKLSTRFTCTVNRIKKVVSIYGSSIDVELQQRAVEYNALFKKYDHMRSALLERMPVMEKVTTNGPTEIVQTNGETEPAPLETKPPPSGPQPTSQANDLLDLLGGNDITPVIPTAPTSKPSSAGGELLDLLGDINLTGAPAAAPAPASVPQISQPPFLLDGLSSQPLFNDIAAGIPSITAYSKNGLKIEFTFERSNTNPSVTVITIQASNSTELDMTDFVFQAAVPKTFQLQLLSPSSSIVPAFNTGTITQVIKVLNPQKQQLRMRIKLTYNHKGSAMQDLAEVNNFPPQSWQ

| Variant | effect of a mutation on the interaction |
| --- | --- |
| MQFMLLFSCQGKLRLQKWYVPLSDKEKKKITRELVQTVLARKPKMCSFLEWRDLKIVYKRYASLYFCCAIEDQDNELITLEIIHRYVELLDKYFGSVCELDIIFNFEKAYFILDEFLLGGEVQETSKKNVLKAIEQADLLQEEAETPRSVLEEIGLT [R9C] | with no effect |

Variants of: B4
Conditions: with pkd2_human PKD2, Q13563

| Variant | effect of a mutation on the interaction |
| --- | --- |
| MLLGQKSQRYKAEEGLQAQGEAPGLMDVQIPTAEEQKAASSSSTLIMGTLEEVTDSGSPSPPQSPEGASSSLTVTDSTLWSQSDEGSSSNEEEGPSTSPDPAHLESLFREALDEKVAELVRFLLRKYQIKEPVTKAEMLESVIKNYKNHFPDIFSKASECMQVIFGIDVKEVDPAGHSYILVTCLGLSYDGLLGDDQSTPKTGLLIIVLGMILMEGSCAPEEAIWEALSVMGLYDGREHSVYWKLRKLLTQEWVQENYLEYRQAPGSDPVRYEFLWGPRALAETSYVKVLEHVVRVNARVRISYPSLHEEALGEEKGV [R218C] | disrupting interaction strength |
